# Laboratory results: patent US20190055314A1 (ADAGENE, published 2019)
# B1: Fab 5360 (Fab, V domains shown)
# VH: EVQLVESGGGLVQPGGSLRLSCAASGYSITSGHYWNWIRQAPGKGLEWVSGISGDGSSTYYADSVKGRFTISRDNSKNTLYLQLNSLRAEDTAVYYCARGGSDAVLGDWFAYWGQGTLVTVSS
# VL: DIQLTQSPSSLSASVGDRVTITCRASQSISSYLAWYQQKPGKAPKLLIYDASNLETGVPSRFSGSGSGTDFTLTISSLQPEDFATYYCQQGYSTWTFGQGTKVEIKR
# notes: Fab from E. coli; also called VH28/VL28
# B2: Fab 5409 (Fab, V domains shown)
# VH: EVQLVESGGGLVQPGGSLRLSCAASGYSISSGHHWAWIRQAPGKGLEWVSVISGSGSSTYYADSVKGRFTISRDNSKNTLYLQLNSLRAEDTAVYYCAREGSDTVLGDWFAYWGQGTLVTVSS
# VL: DIQLTQSPSSLSASVGDRVTITCRASQGISSYLAWYQQKPGKAPKLLIYDASNLETGVPSRFSGSGSGTDFTLTISSLQPEDFATYYCQQGYSTWTFGQGTKVEIKR
# notes: Fab from E. coli; also called VH37/VL37
# B3: Fab 7120 (Fab, V domains shown)
# VH: EVQLVESGGGLVQPGGSLRLSCAASGFSLSTSGVGVGWIRQAPGKGLEWVSYISGDGDTTYYADSVKGRFTISRDNSKNTLYLQLNSLRAEDTAVYYCAREGSTTVLGDWFAYWGQGTLVTVSS
# VL: DIQLTQSPSSLSASVGDRVTITCRASQGISSYLAWYQQKPGKAPKLLIYDASNLETGVPSRFSGSGSGTDFTLTISSLQPEDFATYYCQQYYSTPLTFGQGTKVEIKR
# notes: Fab from E. coli; also called VH53/VL53
# B4: Fab 7128 (Fab, V domains shown)
# VH: EVQLVESGGGLVQPGGSLRLSCAASGFSLSTGGVGVAWIRQAPGKGLEWVSYISGDGGTTYYADSVKGRFTISRDNSKNTLYLQLNSLRAEDTAVYYCAREGSDTVLGDWFAYWGQGTLVTVSS
# VL: DIQLTQSPSSLSASVGDRVTITCRASQGISSYLAWYQQKPGKAPKLLIYDASNLETGVPSRFSGSGSGTDFTLTISSLQPEDFATYYCQQSYSTPLTFGQGTKVEIKR
# notes: Fab from E. coli; also called VH54/VL54
# B5: Fab 7131 (Fab, V domains shown)
# VH: EVQLVESGGGLVQPGGSLRLSCAASGFSLSTGGVGVGWIRQAPGKGLEWVSYISGAGDSTYYADSVKGRFTISRDNSKNTLYLQLNSLRAEDTAVYYCAREGSDTVLGDWFAYWGQGTLVTVSS
# VL: DIQLTQSPSSLSASVGDRVTITCRASQGVSSYLAWYQQKPGKAPKLLIYDASNLETGVPSRFSGSGSGTDFTLTISSLQPEDFATYYCQQYYTTPLTFGQGTKVEIKR
# notes: Fab from E. coli; also called VH55/VL55
# B6: Fab 7133 (Fab, V domains shown)
# VH: EVQLVESGGGLVQPGGSLRLSCAASGFSLSTSGVGVAWIRQAPGKGLEWVSSISGYGGTTYYADSVKGRFTISRDNSKNRLYLQLNSLRAEDTAVYYCAREGSDTVLGDWFAYWGQGTLVTVSS
# VL: DIQLTQSPSSLSASVGDRVTITCRASQGVSSYLAWYQQKPGKAPKLLIYDASNLETGVPSRFSGSGSGTDFTLTISSLQPEDFATYYCQQYYTTPLTFGQGTKVEIKR
# notes: Fab from E. coli; also called VH56/VL56
# B7: Fab 7135 (Fab, V domains shown)
# VH: EVQLVESGGGLVQPGGSLRLSCAASGFSLSTGGVGVGWIRQAPGKGLEWVSSISGSGGSTYYADSVKGRFTISRDNSKNTLYLQLNSLRAEDTAVYYCAREGSDTVLGDWFAYWGQGTLVTVSS
# VL: DIQLTQSPSSLSASVGDRVTITCRASQGVSSYLAWYQQKPGKAPKLLIYDASNLETGVPSRFSGSGSGTDFTLTISSLQPEDFATYYCQQYYTTPLTFGQGTKVEIKR
# notes: Fab from E. coli; also called VH57/VL57
# B8: Fab 4079 (Fab, V domains shown)
# VH: EVQLVESGGGLVQPGGSLRLSCAASGFTFTGYWIHWVRQAPGKGLEWVGRIRSKTDGYTTEYAAPVKGRFTISRDNSKNTLYLQLNSLRAEDTAVYYCARLGGHWYFDVWGQGTLVTVSS
# VL: DIQLTQSPSSLSASVGDRVTITCRASQSIGRYLNWYQQKPGKAPKLLIYDASNLETGVPSRFSGSGSGTDFTLTISSLQPEDFATYYCEQPLELPRTFGQGTKVEIKR
# notes: Fab from E. coli; also called VH5/VL5
# B9: Fab 7097 (Fab, V domains shown)
# VH: EVQLVESGGGLVQPGGSLRLSCAASGYSISSGHHWDWIRQAPGKGLEWVSYISGAGDTTYYADSVKGRFTISRDNSKNTLYLQLNSLRAEDTAVYYCAREGSDAVLGDWFAYWGQGTLVTVSS
# VL: DIQLTQSPSSLSASVGDRVTITCRASQGISSYLAWYQQKPGKAPKLLIYDASNLETGVPSRFSGSGSGTDFTLTISSLQPEDFATYYCQQYYSTPLTFGQGTKVEIKR
# notes: Fab from E. coli; also called VH49/VL49
# B10: Fab 4134 (Fab, V domains shown)
# VH: EVQLVESGGGLVQPGGSLRLSCAASGYSISSGHHWGWIRQAPGKGLEWVSGISGYGDTTYYADSVKGRFTISRDNSKNTLYLQLNSLRAEDTAVYYCARDPYSSGSGYFDYWGQGTLVTVSS
# VL: DIQLTQSPSSLSASVGDRVTITCRASQGISSALGWYQQKPGKAPKLLIYAASSLQSGVPSRFSGSGSGTDFTLTISSLQPEDFATYYCQQSYYTWTFGQGTKVEIKR
# notes: Fab from E. coli; also called VH6/VL6
# B11: Fab 7159 (Fab, V domains shown)
# VH: EVQLVESGGGLVQPGGSLRLSCAASGFSLSTSGVGVGWIRQAPGKGLEWIGDIYHSGSTYYNPSLKSRVTISRDNSKNTLYLQLNSLRAEDTAVYYCAREGSTAVLGDWFAYWGQGTLVTVSS
# VL: DIQLTQSPSSLSASVGDRVTITCRASQSISSYLNWYQQKPGKAPKLLIYAASTLQSGVPSRFSGSGSGTDFTLTISSLQPEDFATYYCQQYYSTPLTFGQGTKVEIKR
# notes: Fab from E. coli; also called VH58/VL58
# B12: Fab 7163 (Fab, V domains shown)
# VH: EVQLVESGGGLVQPGGSLRLSCAASGFSLSTSGVGVTWIRQAPGKSLEWIGDIYHSGSTYYSPSLKSRVTISRDNSKNTLYLQLNSLRAEDTAVYYCAREGSDAVAGDWFDYWGQGTLVTVSS
# VL: DIQLTQSPSSLSASVGDRVTITCRASQSISSYLNWYQQKPGKAPKLLIYAASTLQSGVPSRFSGSGSGTDFTLTISSLQPEDFATYYCQQYYSTPLTFGQGTKVEIKR
# notes: Fab from E. coli; also called VH59/VL59
# B13: Fab 7166 (Fab, V domains shown)
# VH: EVQLVESGGGLVQPGGSLRLSCAASGFSLSTSGVAVAWIRQAPGKGLEWIGDIYHSGNTYYNPSLKSRVTISRDNSKNTLYLQLNSLRAEDTAVYYCARGGSDTVVGDWFAYWGQGTLVTVSS
# VL: DIQLTQSPSSLSASVGDRVTITCRASQSISSYLNWYQQKPGKAPKLLIYAASTLQSGVPSRFSGSGSGTDFTLTISSLQPEDFATYYCQQYYSTPLTFGQGTKVEIKR
# notes: Fab from E. coli; also called VH60/VL60
# B14: Fab 4137 (Fab, V domains shown)
# VH: EVQLVESGGGLVQPGGSLRLSCAASGYSITSGYYWGWIRQAPGKGLEWVSGISGSGSSTYYADSVKGRFTISRDNSKNTLYLQLNSLRAEDTAVYYCARGTYSFDVWGQGTLVTVSS
# VL: DIQLTQSPSSLSASVGDRVTITCRASQGISSDLAWYQQKPGKAPKLLIYAASTLQSGVPSRFSGSGSGTDFTLTISSLQPEDFATYYCQQYYSYITFGQGTKVEIKR
# notes: Fab from E. coli; also called VH7/VL7
# B15: Fab 4139 (Fab, V domains shown)
# VH: EVQLVESGGGLVQPGGSLRLSCAASGYTFTGYAIHWVRQAPGKGLEWVSAISGDGGSTYYADSVKGRFTISRDNSKNTLYLQLNSLRAEDTAVYYCARGYRGYFDYWGQGTLVTVSS
# VL: DIQLTQSPSSLSASVGDRVTITCRASESVTSTYLAWYQQKPGKAPKLLIYDASNLETGVPSRFSGSGSGTDFTLTISSLQPEDFATYYCQQYSDWPPTFGQGTKVEIKR
# notes: Fab from E. coli; also called VH8/VL8
# B16: Fab 4140 (Fab, V domains shown)
# VH: EVQLVESGGGLVQPGGSLRLSCAASGYSISSGYHWNWIRQAPGKGLEWVSSISGSGGSTYYADSVKGRFTISRDNSKNTLYLQLNSLRAEDTAVYYCARDPNYYSSGSYFDYWGQGTLVTVSS
# VL: DIQLTQSPSSLSASVGDRVTITCRASQGIGSFLGWYQQKPGKAPKLLIYDASNRATGIPSRFSGSGSGTDFTLTISSLQPEDFATYYCQQSYSLWTFGQGTKVEIKR
# notes: Fab from E. coli; also called VH9/VL9
# B17: Fab 5341 (Fab, V domains shown)
# VH: EVQLVESGGGLVQPGGSLRLSCAASGYSITSGHHWAWIRQAPGKGLEWVSAISGDGSTTYYADSVKGRFTISRDNSKNTLYLQLNSLRAEDTAVYYCAREGSTAVTGDWFAYWGQGTLVTVSS
# VL: DIQLTQSPSSLSASVGDRVTITCSASSRVGYVHWYQQKPGKAPKLLIYDASSLESGVPSRFSGSGSGTDFTLTISSLQPEDFATYYCQQGYYTWTFGQGTKVEIKR
# notes: Fab from E. coli; also called VH20/VL20
# B18: Fab 5348 (Fab, V domains shown)
# VH: EVQLVESGGGLVQPGGSLRLSCAASGFSLSTGGVAVGWIRQAPGKGLEWVSGISGDGGTTYYADSVKGRFTISRDNSKNTLYLQLNSLRAEDTAVYYCTREDYGPHAYWGQGTLVTVSS
# VL: DIQLTQSPSSLSASVGDRVTITCRASQSITTYLNWYQQKPGKAPKLLIYDASNLETGVPSRFSGSGSGTDFTLTISSLQPEDFATYYCQQSYSYSTFGQGTKVEIKR
# notes: Fab from E. coli; also called VH23/VL23
# B19: Fab 5371 (Fab, V domains shown)
# VH: EVQLVESGGGLVQPGGSLRLSCAASGFSLSTSGVGVAWIRQAPGKGLEWVSYISGDGGSTYYADSVKGRFTISRDNSKNTLYLQLNSLRAEDTAVYYCAREGSDVVAGDWFAYWGQGTLVTVSS
# VL: DIQLTQSPSSLSASVGDRVTITCRASQDISSVLAWYQQKPGKAPKLLIYDASSLESGVPSRFSGSGSGTDFTLTISSLQPEDFATYYCQQGYQIWTFGQGTKVEIKR
# notes: Fab from E. coli; also called VH33/VL33
# Target: T1, CD137-hisFc fusion protein (Sino Biological Cat 10041-H03H) (human, UniProt Q07011 24-186)
# T1 construct: Bought; also called recombinant human CD137 (fused with human Fc and His tag); not shown: His tag and human Fc
# Assay: BLI Octet, Fab
# Experimental: (§1) The Fabs corresponding to the unique hits were expressed in E. coli and purified. Their affinities against human CD137 were measured by ForteBio Octet RED96 Systems. […] The acquired ForteBio data were processed with Data Acquisition software 7.1, and kinetic data were fitted to a 1:1 Langmuir binding model.
Binder,Kd [nM],koff [s⁻¹],kon [M⁻¹ s⁻¹]
B1,24,0.0029,120000
B2,17,0.0043,250000

# Target: T1, CD137-hisFc fusion protein (Sino …)
# Assay: BLI Octet, Fab
# Remark: another data set of the same source
# Experimental: as §1
Binder,Kd [nM],koff [s⁻¹],kon [M⁻¹ s⁻¹]
B1,24.1,0.00289,120000
B2,17,0.00427,251000
B3,34.5,0.00911,264000
B4,39.7,0.0123,309000
B5,30.4,0.0081,266000
B6,40.3,0.00405,101000
B7,31.7,0.00322,102000
B8,31.5,0.00219,69300
B9,24.3,0.0132,542000
B10,13,0.000769,59300
B11,37.9,0.00403,106000
B12,12.6,0.00378,299000
B13,12.4,0.00429,345000
B14,< 0.001,< 1e-07,85600
B15,1.65,8.17e-05,49600
B16,< 0.001,< 1e-07,25700
B17,29.3,0.00188,64200
B18,10.2,0.0133,1.31e+06
B19,3.97,0.00479,1.21e+06
